Test results reported in publication PMC3423971 (Structure (London, England : 1993), 2012).

Tests used:
[1] = target: ubiquitin-AMC (UniProt P0CG48 1-76, AMC (ubiquitin-AMC)); experiment: cell-based or functional assay
[2] = target: the molecule itself; experiment: crystal structure
[3] = target: the molecule itself; experiment: AUC
[4] = target: the molecule itself; experiment: AUC; remark: listed apart in the source

Row | Binder | KM of Ub-AMC cleavage (steady-state kinetics, 30°C) [1] [µM] | binding result [2] | Kd [3] [µM] | stoichiometry N [4]
1 | wild-type SAGA deubiquitinating module (DUBm): Ubp8, Sgf11, Sus1, Sgf73(1-96) (complex, yeast) chain 1: MSICPHIQQVFQNEKSKDGVLKTCNAARYILNHSVPKEKFLNTMKCGTCHEINSGATFMCLQCGFCGCWNHSHFLSHSKQIGHIFGINSNNGLLFCFKCEDYIGNIDLINDAILAKYWDDVCTKTMVPSMERRDGLSGLINMGSTCFMSSILQCLIHNPYFIRHSMSQIHSNNCKVRSPDKCFSCALDKIVHELYGALNTKQASSSSTSTNRQTGFIYLLTCAWKINQNLAGYSQQDAHEFWQFIINQIHQSYVLDLPNAKEVSRANNKQCECIVHTVFEGSLESSIVCPGCQNNSKTTIDPFLDLSLDIKDKKKLYECLDSFHKKEQLKDFNYHCGECNSTQDAIKQLGIHKLPSVLVLQLKRFEHLLNGSNRKLDDFIEFPTYLNMKNYCSTKEKDKHSENGKVPDIIYELIGIVSHKGTVNEGHYIAFCKISGGQWFKFNDSMVSSISQEEVLKEQAYLLFYTIRQVN chain 2: MTEETITIDSISNGILNNLLTTLIQDIVARETTQQQLLKTRYPDLRSYYFDPNGSLDINGLQKQQESSQYIHCENCGRDVSANRLAAHLQRCLSRGARR chain 3: MTMDTAQLKSQIQQYLVESGNYELISNELKARLLQEGWVDKVKDLTKSEMNINESTNFTQILSTVEPKALEMVSDSTRETVLKQIREFLEEIVDTQ chain 4: MRSGDAEIKGIKPKVIEEYSLSQGSGPSNDSWKSLMSSAKDTPLQYDHMNRESLKKYFNPNAQLIEDPLDKPIQYRVCEKCGKPLALTAIVDHLEN | 24 | – | – | –
2 | DUBm-ΔSgf11-ZnF-Ubp8^S144N/S149N: Ubp8 S144N S149N, Sgf11(1-72), Sus1, Sgf73(1-96) (complex, yeast) chain 1: MSICPHIQQVFQNEKSKDGVLKTCNAARYILNHSVPKEKFLNTMKCGTCHEINSGATFMCLQCGFCGCWNHSHFLSHSKQIGHIFGINSNNGLLFCFKCEDYIGNIDLINDAILAKYWDDVCTKTMVPSMERRDGLSGLINMGNTCFMNSILQCLIHNPYFIRHSMSQIHSNNCKVRSPDKCFSCALDKIVHELYGALNTKQASSSSTSTNRQTGFIYLLTCAWKINQNLAGYSQQDAHEFWQFIINQIHQSYVLDLPNAKEVSRANNKQCECIVHTVFEGSLESSIVCPGCQNNSKTTIDPFLDLSLDIKDKKKLYECLDSFHKKEQLKDFNYHCGECNSTQDAIKQLGIHKLPSVLVLQLKRFEHLLNGSNRKLDDFIEFPTYLNMKNYCSTKEKDKHSENGKVPDIIYELIGIVSHKGTVNEGHYIAFCKISGGQWFKFNDSMVSSISQEEVLKEQAYLLFYTIRQVN chain 2: MTEETITIDSISNGILNNLLTTLIQDIVARETTQQQLLKTRYPDLRSYYFDPNGSLDINGLQKQQESSQYIH chain 3: MTMDTAQLKSQIQQYLVESGNYELISNELKARLLQEGWVDKVKDLTKSEMNINESTNFTQILSTVEPKALEMVSDSTRETVLKQIREFLEEIVDTQ chain 4: MRSGDAEIKGIKPKVIEEYSLSQGSGPSNDSWKSLMSSAKDTPLQYDHMNRESLKKYFNPNAQLIEDPLDKPIQYRVCEKCGKPLALTAIVDHLEN | 13 | – | – | –
3 | Ubp8 S144N (enzyme, yeast) MSICPHIQQVFQNEKSKDGVLKTCNAARYILNHSVPKEKFLNTMKCGTCHEINSGATFMCLQCGFCGCWNHSHFLSHSKQIGHIFGINSNNGLLFCFKCEDYIGNIDLINDAILAKYWDDVCTKTMVPSMERRDGLSGLINMGNTCFMSSILQCLIHNPYFIRHSMSQIHSNNCKVRSPDKCFSCALDKIVHELYGALNTKQASSSSTSTNRQTGFIYLLTCAWKINQNLAGYSQQDAHEFWQFIINQIHQSYVLDLPNAKEVSRANNKQCECIVHTVFEGSLESSIVCPGCQNNSKTTIDPFLDLSLDIKDKKKLYECLDSFHKKEQLKDFNYHCGECNSTQDAIKQLGIHKLPSVLVLQLKRFEHLLNGSNRKLDDFIEFPTYLNMKNYCSTKEKDKHSENGKVPDIIYELIGIVSHKGTVNEGHYIAFCKISGGQWFKFNDSMVSSISQEEVLKEQAYLLFYTIRQVN | – | binds | – | –
4 | DUBm-ΔSgf11-ZnF-Ubp8^S144N: Ubp8 S144N, Sgf11(1-72), Sus1, Sgf73(1-96) (complex, yeast) chain 1: MSICPHIQQVFQNEKSKDGVLKTCNAARYILNHSVPKEKFLNTMKCGTCHEINSGATFMCLQCGFCGCWNHSHFLSHSKQIGHIFGINSNNGLLFCFKCEDYIGNIDLINDAILAKYWDDVCTKTMVPSMERRDGLSGLINMGNTCFMSSILQCLIHNPYFIRHSMSQIHSNNCKVRSPDKCFSCALDKIVHELYGALNTKQASSSSTSTNRQTGFIYLLTCAWKINQNLAGYSQQDAHEFWQFIINQIHQSYVLDLPNAKEVSRANNKQCECIVHTVFEGSLESSIVCPGCQNNSKTTIDPFLDLSLDIKDKKKLYECLDSFHKKEQLKDFNYHCGECNSTQDAIKQLGIHKLPSVLVLQLKRFEHLLNGSNRKLDDFIEFPTYLNMKNYCSTKEKDKHSENGKVPDIIYELIGIVSHKGTVNEGHYIAFCKISGGQWFKFNDSMVSSISQEEVLKEQAYLLFYTIRQVN chain 2: MTEETITIDSISNGILNNLLTTLIQDIVARETTQQQLLKTRYPDLRSYYFDPNGSLDINGLQKQQESSQYIH chain 3: MTMDTAQLKSQIQQYLVESGNYELISNELKARLLQEGWVDKVKDLTKSEMNINESTNFTQILSTVEPKALEMVSDSTRETVLKQIREFLEEIVDTQ chain 4: MRSGDAEIKGIKPKVIEEYSLSQGSGPSNDSWKSLMSSAKDTPLQYDHMNRESLKKYFNPNAQLIEDPLDKPIQYRVCEKCGKPLALTAIVDHLEN | 17 | – | 28 | 2
5 | DUBm-ΔSgf11-ZnF-Ubp8^WT: Ubp8, Sgf11(1-72), Sus1, Sgf73(1-96) (complex, yeast) chain 1: MSICPHIQQVFQNEKSKDGVLKTCNAARYILNHSVPKEKFLNTMKCGTCHEINSGATFMCLQCGFCGCWNHSHFLSHSKQIGHIFGINSNNGLLFCFKCEDYIGNIDLINDAILAKYWDDVCTKTMVPSMERRDGLSGLINMGSTCFMSSILQCLIHNPYFIRHSMSQIHSNNCKVRSPDKCFSCALDKIVHELYGALNTKQASSSSTSTNRQTGFIYLLTCAWKINQNLAGYSQQDAHEFWQFIINQIHQSYVLDLPNAKEVSRANNKQCECIVHTVFEGSLESSIVCPGCQNNSKTTIDPFLDLSLDIKDKKKLYECLDSFHKKEQLKDFNYHCGECNSTQDAIKQLGIHKLPSVLVLQLKRFEHLLNGSNRKLDDFIEFPTYLNMKNYCSTKEKDKHSENGKVPDIIYELIGIVSHKGTVNEGHYIAFCKISGGQWFKFNDSMVSSISQEEVLKEQAYLLFYTIRQVN chain 2: MTEETITIDSISNGILNNLLTTLIQDIVARETTQQQLLKTRYPDLRSYYFDPNGSLDINGLQKQQESSQYIH chain 3: MTMDTAQLKSQIQQYLVESGNYELISNELKARLLQEGWVDKVKDLTKSEMNINESTNFTQILSTVEPKALEMVSDSTRETVLKQIREFLEEIVDTQ chain 4: MRSGDAEIKGIKPKVIEEYSLSQGSGPSNDSWKSLMSSAKDTPLQYDHMNRESLKKYFNPNAQLIEDPLDKPIQYRVCEKCGKPLALTAIVDHLEN | 19 | – | ~17 | 2
6 | Ubp8 (wild type) (enzyme, yeast) MSICPHIQQVFQNEKSKDGVLKTCNAARYILNHSVPKEKFLNTMKCGTCHEINSGATFMCLQCGFCGCWNHSHFLSHSKQIGHIFGINSNNGLLFCFKCEDYIGNIDLINDAILAKYWDDVCTKTMVPSMERRDGLSGLINMGSTCFMSSILQCLIHNPYFIRHSMSQIHSNNCKVRSPDKCFSCALDKIVHELYGALNTKQASSSSTSTNRQTGFIYLLTCAWKINQNLAGYSQQDAHEFWQFIINQIHQSYVLDLPNAKEVSRANNKQCECIVHTVFEGSLESSIVCPGCQNNSKTTIDPFLDLSLDIKDKKKLYECLDSFHKKEQLKDFNYHCGECNSTQDAIKQLGIHKLPSVLVLQLKRFEHLLNGSNRKLDDFIEFPTYLNMKNYCSTKEKDKHSENGKVPDIIYELIGIVSHKGTVNEGHYIAFCKISGGQWFKFNDSMVSSISQEEVLKEQAYLLFYTIRQVN | – | binds | – | –
7 | DUBm-ΔSgf11-ZnF-Ubp8^S149N: Ubp8 S149N, Sgf11(1-72), Sus1, Sgf73(1-96) (complex, yeast) chain 1: MSICPHIQQVFQNEKSKDGVLKTCNAARYILNHSVPKEKFLNTMKCGTCHEINSGATFMCLQCGFCGCWNHSHFLSHSKQIGHIFGINSNNGLLFCFKCEDYIGNIDLINDAILAKYWDDVCTKTMVPSMERRDGLSGLINMGSTCFMNSILQCLIHNPYFIRHSMSQIHSNNCKVRSPDKCFSCALDKIVHELYGALNTKQASSSSTSTNRQTGFIYLLTCAWKINQNLAGYSQQDAHEFWQFIINQIHQSYVLDLPNAKEVSRANNKQCECIVHTVFEGSLESSIVCPGCQNNSKTTIDPFLDLSLDIKDKKKLYECLDSFHKKEQLKDFNYHCGECNSTQDAIKQLGIHKLPSVLVLQLKRFEHLLNGSNRKLDDFIEFPTYLNMKNYCSTKEKDKHSENGKVPDIIYELIGIVSHKGTVNEGHYIAFCKISGGQWFKFNDSMVSSISQEEVLKEQAYLLFYTIRQVN chain 2: MTEETITIDSISNGILNNLLTTLIQDIVARETTQQQLLKTRYPDLRSYYFDPNGSLDINGLQKQQESSQYIH chain 3: MTMDTAQLKSQIQQYLVESGNYELISNELKARLLQEGWVDKVKDLTKSEMNINESTNFTQILSTVEPKALEMVSDSTRETVLKQIREFLEEIVDTQ chain 4: MRSGDAEIKGIKPKVIEEYSLSQGSGPSNDSWKSLMSSAKDTPLQYDHMNRESLKKYFNPNAQLIEDPLDKPIQYRVCEKCGKPLALTAIVDHLEN | 11 | – | – | –
